Experimental data taken from patent US11773160.

Experiments:
[1] = target: IL-2R on murine splenocytes (C57BL/6); assay: cell-based or functional assay
[2] = target: trimeric IL-2 receptor on HEK-Blue IL-2 reporter cells (UniProt P01589); assay: cell-based or functional assay
trimeric IL-2 receptor on HEK-Blue IL-2 reporter cells, sequence (P01589 22-272 limits assumed, chain 1 of 3): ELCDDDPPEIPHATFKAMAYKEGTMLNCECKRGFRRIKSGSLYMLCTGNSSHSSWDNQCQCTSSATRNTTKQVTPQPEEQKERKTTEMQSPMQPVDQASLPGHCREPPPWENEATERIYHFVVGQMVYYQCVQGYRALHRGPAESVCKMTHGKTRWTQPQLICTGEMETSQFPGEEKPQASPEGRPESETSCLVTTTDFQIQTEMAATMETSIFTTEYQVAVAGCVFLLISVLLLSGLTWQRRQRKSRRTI
trimeric IL-2 receptor on HEK-Blue IL-2 reporter cells, sequence (P14784 27-551 limits assumed, chain 2 of 3, further chain): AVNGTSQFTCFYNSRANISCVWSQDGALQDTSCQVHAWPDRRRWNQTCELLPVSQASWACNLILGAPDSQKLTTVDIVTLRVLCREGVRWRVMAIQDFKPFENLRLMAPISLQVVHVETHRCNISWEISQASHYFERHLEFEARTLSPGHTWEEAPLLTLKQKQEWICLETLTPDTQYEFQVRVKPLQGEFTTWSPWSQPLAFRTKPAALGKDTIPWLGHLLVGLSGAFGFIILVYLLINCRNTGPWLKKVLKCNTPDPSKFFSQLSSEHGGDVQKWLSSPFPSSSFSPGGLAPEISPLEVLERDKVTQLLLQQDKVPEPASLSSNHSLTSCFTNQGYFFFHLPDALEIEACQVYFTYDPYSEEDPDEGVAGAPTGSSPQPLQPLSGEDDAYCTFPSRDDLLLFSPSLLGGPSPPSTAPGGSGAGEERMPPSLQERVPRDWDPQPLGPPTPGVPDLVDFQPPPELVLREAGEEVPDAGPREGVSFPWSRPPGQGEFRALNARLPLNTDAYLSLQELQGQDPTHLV
trimeric IL-2 receptor on HEK-Blue IL-2 reporter cells, sequence (P31785 23-369 limits assumed, chain 3 of 3, further chain): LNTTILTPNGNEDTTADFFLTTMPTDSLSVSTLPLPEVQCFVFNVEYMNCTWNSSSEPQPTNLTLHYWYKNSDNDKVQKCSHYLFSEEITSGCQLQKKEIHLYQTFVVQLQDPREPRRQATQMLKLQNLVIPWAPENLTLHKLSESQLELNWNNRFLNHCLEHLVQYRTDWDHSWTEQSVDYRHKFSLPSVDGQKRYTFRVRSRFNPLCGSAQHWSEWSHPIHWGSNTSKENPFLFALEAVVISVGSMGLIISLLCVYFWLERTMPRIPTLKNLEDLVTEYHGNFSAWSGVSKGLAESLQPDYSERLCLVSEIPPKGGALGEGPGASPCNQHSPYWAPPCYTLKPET

EC50 CD8 cells (nM), pSTAT5 MFI [1]: 4.1 nM
EC50 NK cells (nM), pSTAT5 MFI [1]: 1.4 nM
EC50 Treg cells (nM), pSTAT5 MFI [1]: < 0.016 nM
EC50 (M), SEAP of HEK-Blue IL-2 reporter cells [2]: 4.28e-12 M
Substance: Proleukin (aldesleukin) (from UniProt P60568 22-153) (ligand)
